Experimental data from the FLAb antibody collection (doi:10.7554/elife.23156).

B1: scFv; the commonest letter at each place (parent)
chain 1: EVKLDETGGGLVQPGRPMKLSCVASGFTFSDYWMNWVRQSPEKGLEWVAQIRNKPYNYETYYSDSVKGRFTISRDDSKSSVYLQMNNLRVEDMGIYYCTGSYYGMDYWGQGTSVTVS
chain 2: DVVMTQTPLSLPVSLGDQASISCRSSQSLVHSNGNTYLRWYLQKPGQSPKVLIYKVSNRFSGVPDRFSGSGSGTDFTLKISRVEAEDLGVYFCSQSTHVPWTFGGGTKLEIK

What was measured:
fluorescein = variants of: B1; assay: Kd (Tite-Seq); settings: with fluorescein; format: scFv 4-4-20, heavy + light
[1] = variants of: B1; assay: yeast surface expression (ratio to wild type); higher = more expressed; settings: format: scFv 4-4-20, heavy + light

| Kd (fluorescein) [nM] | Variant | yeast surface expression [1] |
| --- | --- | --- |
| 7.85 | chain 1 EVKLDETGGGLVQPGRPMKLSCVASGFTFSDYWMNWVRQSPEKGLEWVAQIRNKPYNYETYYSDSVKGRFTISRDDSKSSVYLQMNNLRVEDMGIYYCTGSYYGMTYWGQGTSVTVS chain 2 DVVMTQTPLSLPVSLGDQASISCRSSQSLVHSNGNTYLRWYLQKPGQSPKVLIYKVSNRFSGVPDRFSGSGSGTDFTLKISRVEAEDLGVYFCSQSTHVPWTFGGGTKLEIK [chain 1 D106T] | 1.09 |
| 550 | chain 1 EVKLDETGGGLVQPGRPMKLSCVASGFTFSDYWMNWVRQSPEKGLEWVAQIRNKPYNYETYYSDSVKGRFTISRDDSKSSVYLQMNNLRVEDMGIYYCTGSYYGMSYVGQGTSVTVS chain 2 DVVMTQTPLSLPVSLGDQASISCRSSQSLVHSNGNTYLRWYLQKPGQSPKVLIYKVSNRFSGVPDRFSGSGSGTDFTLKISRVEAEDLGVYFCSQSTHVPWTFGGGTKLEIK [chain 1 D106S W108V] | 0.859 |

The next lines start with the variant.

| Variant | Kd (fluorescein) [nM] | yeast surface expression [1] |
| --- | --- | --- |
| chain 1 EVKLDETGGGLVQPGRPMKLSCVASGFTFSDYWMNWVRQSPEKGLEWVAQIRNKPYNYETYYSDSVKGRFTISRDDSKSSVYLQMNNLRVEDMGIYYCTGSYYGMSYWGQGTSVTVS chain 2 DVVMTQTPLSLPVSLGDQASISCRSSQSLVHSNGNTYLRWYLQKPGQSPKVLIYKVSNRFSGVPDRFSGSGSGTDFTLKISRVEAEDLGVYFCSQSTHVPWTFGGGTKLEIK [chain 1 D106S] | 2.79 | 1.16 |
| chain 1 EVKLDETGGGLVQPGRPMKLSCVASGFTFSDYWMNWVRQSPEKGLEWVAQIRNKPYNYETYYSDSVKGRFTISRDDSKSSVYLQMNNLRVEDMGIYYCTGSYYGMRDWGQGTSVTVS chain 2 DVVMTQTPLSLPVSLGDQASISCRSSQSLVHSNGNTYLRWYLQKPGQSPKVLIYKVSNRFSGVPDRFSGSGSGTDFTLKISRVEAEDLGVYFCSQSTHVPWTFGGGTKLEIK [chain 1 D106R Y107D] | ≥ 10000 | 0.462 |
| chain 1 EVKLDETGGGLVQPGRPMKLSCVASGFTFSDYWMNWVRQSPEKGLEWVAQIRNKPYNYETYYSDSVKGRFTISRDDSKSSVYLQMNNLRVEDMGIYYCTGSYYGMRNWGQGTSVTVS chain 2 DVVMTQTPLSLPVSLGDQASISCRSSQSLVHSNGNTYLRWYLQKPGQSPKVLIYKVSNRFSGVPDRFSGSGSGTDFTLKISRVEAEDLGVYFCSQSTHVPWTFGGGTKLEIK [chain 1 D106R Y107N] | ≥ 10000 | 0.359 |
| chain 1 EVKLDETGGGLVQPGRPMKLSCVASGFTFSDYWMNWVRQSPEKGLEWVAQIRNKPYNYETYYSDSVKGRFTISRDDSKSSVYLQMNNLRVEDMGIYYCTGSYYGMRYWHQGTSVTVS chain 2 DVVMTQTPLSLPVSLGDQASISCRSSQSLVHSNGNTYLRWYLQKPGQSPKVLIYKVSNRFSGVPDRFSGSGSGTDFTLKISRVEAEDLGVYFCSQSTHVPWTFGGGTKLEIK [chain 1 D106R G109H] | ≥ 10000 | 0.486 |
